According to patent US20140087995A1 (published 2014):
Numbered stars: 1 amine (or outer) side, 2 acyl side, 3 side chain; on linkers, the order of the positions; unused ones are H or OH. Bridge positions count the residues as written; N and C are the ends. Side chains are listed from the residue outwards. Ends that are not written are not given here. * marks the point of attachment. C20 diacid = O=C(O)CCCCCCCCCCCCCCCCCCC(=O)*; γGlu = O=C(O)[C@H](CCC(=O)[*:2])N[*:1]; AEEA = NCCOCCOCC(=O)O

T1: human amylin receptor (amylin 3(a) receptor: human calcitonin receptor coexpressed with RAMP-3) (human, UniProt P30988 25-474; O60896 24-148)
T1 sequence (looked up) 1: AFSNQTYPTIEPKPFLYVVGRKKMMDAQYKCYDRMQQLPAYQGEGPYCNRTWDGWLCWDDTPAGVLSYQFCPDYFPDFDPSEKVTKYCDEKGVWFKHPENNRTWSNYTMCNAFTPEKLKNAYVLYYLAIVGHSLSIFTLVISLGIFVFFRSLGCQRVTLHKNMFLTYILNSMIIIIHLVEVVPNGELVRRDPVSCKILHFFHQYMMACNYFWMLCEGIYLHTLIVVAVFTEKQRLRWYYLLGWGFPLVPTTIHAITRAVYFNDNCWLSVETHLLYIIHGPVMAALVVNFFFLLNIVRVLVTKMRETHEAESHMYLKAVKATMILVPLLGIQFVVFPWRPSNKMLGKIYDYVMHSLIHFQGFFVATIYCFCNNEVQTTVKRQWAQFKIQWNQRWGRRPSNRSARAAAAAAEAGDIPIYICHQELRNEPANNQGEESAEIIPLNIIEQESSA
T1 sequence (looked up) 2: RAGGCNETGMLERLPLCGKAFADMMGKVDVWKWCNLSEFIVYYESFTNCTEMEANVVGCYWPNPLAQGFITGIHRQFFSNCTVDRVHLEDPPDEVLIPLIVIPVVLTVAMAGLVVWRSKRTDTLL

T2: human calcitonin receptor (human, UniProt P30988 25-474)
T2 sequence (looked up): T1 sequence (looked up) 1

B1: N^ε1-[2-[2-[2-[[2-[2-[2-[[(4S)-4-carboxy-4-(19-carboxynonadecanoylamino)butanoyl]amino]ethoxy]ethoxy]acetyl]amino]ethoxy]ethoxy]acetyl]-[Arg17,Pro21,Pro27,Pro31 … (peptide)
peptide: K([AEEA-AEEA-γGlu-C20 diacid])CNTATCATQRLANFLRHSSPNFGAIPSSTPVGSNTY-NH2
modifications: disulfide 2-7; N-terminus assumed
SMILES: CC[C@H](C)[C@H](NC(=O)[C@H](C)NC(=O)CNC(=O)[C@H](Cc1ccccc1)NC(=O)[C@H](CC(N)=O)NC(=O)[C@@H]1CCCN1C(=O)[C@H](CO)NC(=O)[C@H](CO)NC(=O)[C@H](Cc1c[nH]cn1)NC(=O)[C@H](CCCNC(=N)N)NC(=O)[C@H](CC(C)C)NC(=O)[C@H](Cc1ccccc1)NC(=O)[C@H](CC(N)=O)NC(=O)[C@H](C)NC(=O)[C@H](CC(C)C)NC(=O)[C@H](CCCNC(=N)N)NC(=O)[C@H](CCC(N)=O)NC(=O)[C@@H](NC(=O)[C@H](C)NC(=O)[C@@H]1CSSC[C@H](NC(=O)[C@@H](N)CCCCNC(=O)COCCOCCNC(=O)COCCOCCNC(=O)CC[C@H](NC(=O)CCCCCCCCCCCCCCCCCCC(=O)O)C(=O)O)C(=O)N[C@@H](CC(N)=O)C(=O)N[C@@H]([C@@H](C)O)C(=O)N[C@@H](C)C(=O)N[C@@H]([C@@H](C)O)C(=O)N1)[C@@H](C)O)C(=O)N1CCC[C@H]1C(=O)N[C@@H](CO)C(=O)N[C@@H](CO)C(=O)N[C@H](C(=O)N1CCC[C@H]1C(=O)N[C@H](C(=O)NCC(=O)N[C@@H](CO)C(=O)N[C@@H](CC(N)=O)C(=O)N[C@H](C(=O)N[C@@H](Cc1ccc(O)cc1)C(N)=O)[C@@H](C)O)C(C)C)[C@@H](C)O
notes: also called compound 96
B2: N^ε1-[2-[2-[2-[[(4S)-4-carboxy-4-(19-carboxynonadecanoylamino)butanoyl]amino]ethoxy]ethoxy]acetyl]-[Arg17,Pro21,Pro27,Arg34]-h-amylin (peptide)
peptide: K([AEEA-γGlu-C20 diacid])CNTATCATQRLANFLRHSSPNFGAIPSSTNVGRNTY-NH2
modifications: disulfide 2-7; N-terminus assumed
SMILES: CC[C@H](C)[C@H](NC(=O)[C@H](C)NC(=O)CNC(=O)[C@H](Cc1ccccc1)NC(=O)[C@H](CC(N)=O)NC(=O)[C@@H]1CCCN1C(=O)[C@H](CO)NC(=O)[C@H](CO)NC(=O)[C@H](Cc1c[nH]cn1)NC(=O)[C@H](CCCNC(=N)N)NC(=O)[C@H](CC(C)C)NC(=O)[C@H](Cc1ccccc1)NC(=O)[C@H](CC(N)=O)NC(=O)[C@H](C)NC(=O)[C@H](CC(C)C)NC(=O)[C@H](CCCNC(=N)N)NC(=O)[C@H](CCC(N)=O)NC(=O)[C@@H](NC(=O)[C@H](C)NC(=O)[C@@H]1CSSC[C@H](NC(=O)[C@@H](N)CCCCNC(=O)COCCOCCNC(=O)CC[C@H](NC(=O)CCCCCCCCCCCCCCCCCCC(=O)O)C(=O)O)C(=O)N[C@@H](CC(N)=O)C(=O)N[C@@H]([C@@H](C)O)C(=O)N[C@@H](C)C(=O)N[C@@H]([C@@H](C)O)C(=O)N1)[C@@H](C)O)C(=O)N1CCC[C@H]1C(=O)N[C@@H](CO)C(=O)N[C@@H](CO)C(=O)N[C@H](C(=O)N[C@@H](CC(N)=O)C(=O)N[C@H](C(=O)NCC(=O)N[C@@H](CCCNC(=N)N)C(=O)N[C@@H](CC(N)=O)C(=O)N[C@H](C(=O)N[C@@H](Cc1ccc(O)cc1)C(N)=O)[C@@H](C)O)C(C)C)[C@@H](C)O
notes: also called compound 78
B3: N^ε1-[2-[2-[2-[[(4S)-4-carboxy-4-(19-carboxynonadecanoylamino)butanoyl]amino]ethoxy]ethoxy]acetyl]-[Arg14,Arg17,Pro21,Pro27]-h-amylin (peptide)
peptide: K([AEEA-γGlu-C20 diacid])CNTATCATQRLARFLRHSSPNFGAIPSSTNVGSNTY-NH2
modifications: disulfide 2-7; N-terminus assumed
SMILES: CC[C@H](C)[C@H](NC(=O)[C@H](C)NC(=O)CNC(=O)[C@H](Cc1ccccc1)NC(=O)[C@H](CC(N)=O)NC(=O)[C@@H]1CCCN1C(=O)[C@H](CO)NC(=O)[C@H](CO)NC(=O)[C@H](Cc1c[nH]cn1)NC(=O)[C@H](CCCNC(=N)N)NC(=O)[C@H](CC(C)C)NC(=O)[C@H](Cc1ccccc1)NC(=O)[C@H](CCCNC(=N)N)NC(=O)[C@H](C)NC(=O)[C@H](CC(C)C)NC(=O)[C@H](CCCNC(=N)N)NC(=O)[C@H](CCC(N)=O)NC(=O)[C@@H](NC(=O)[C@H](C)NC(=O)[C@@H]1CSSC[C@H](NC(=O)[C@@H](N)CCCCNC(=O)COCCOCCNC(=O)CC[C@H](NC(=O)CCCCCCCCCCCCCCCCCCC(=O)O)C(=O)O)C(=O)N[C@@H](CC(N)=O)C(=O)N[C@@H]([C@@H](C)O)C(=O)N[C@@H](C)C(=O)N[C@@H]([C@@H](C)O)C(=O)N1)[C@@H](C)O)C(=O)N1CCC[C@H]1C(=O)N[C@@H](CO)C(=O)N[C@@H](CO)C(=O)N[C@H](C(=O)N[C@@H](CC(N)=O)C(=O)N[C@H](C(=O)NCC(=O)N[C@@H](CO)C(=O)N[C@@H](CC(N)=O)C(=O)N[C@H](C(=O)N[C@@H](Cc1ccc(O)cc1)C(N)=O)[C@@H](C)O)C(C)C)[C@@H](C)O
notes: also called compound 82
B4: N^ε1-[2-[2-[2-[[2-[2-[2-[[(4S)-4-carboxy-4-(19-carboxynonadecanoylamino)butanoyl]amino]ethoxy]ethoxy]acetyl]amino]ethoxy]ethoxy]acetyl]-[Arg17,Pro21,Pro27,Pro34 … (peptide)
peptide: K([AEEA-AEEA-γGlu-C20 diacid])CNTATCATQRLANFLRHSSPNFGAIPSSTNVGPNTY-NH2
modifications: disulfide 2-7; N-terminus assumed
SMILES: CC[C@H](C)[C@H](NC(=O)[C@H](C)NC(=O)CNC(=O)[C@H](Cc1ccccc1)NC(=O)[C@H](CC(N)=O)NC(=O)[C@@H]1CCCN1C(=O)[C@H](CO)NC(=O)[C@H](CO)NC(=O)[C@H](Cc1c[nH]cn1)NC(=O)[C@H](CCCNC(=N)N)NC(=O)[C@H](CC(C)C)NC(=O)[C@H](Cc1ccccc1)NC(=O)[C@H](CC(N)=O)NC(=O)[C@H](C)NC(=O)[C@H](CC(C)C)NC(=O)[C@H](CCCNC(=N)N)NC(=O)[C@H](CCC(N)=O)NC(=O)[C@@H](NC(=O)[C@H](C)NC(=O)[C@@H]1CSSC[C@H](NC(=O)[C@@H](N)CCCCNC(=O)COCCOCCNC(=O)COCCOCCNC(=O)CC[C@H](NC(=O)CCCCCCCCCCCCCCCCCCC(=O)O)C(=O)O)C(=O)N[C@@H](CC(N)=O)C(=O)N[C@@H]([C@@H](C)O)C(=O)N[C@@H](C)C(=O)N[C@@H]([C@@H](C)O)C(=O)N1)[C@@H](C)O)C(=O)N1CCC[C@H]1C(=O)N[C@@H](CO)C(=O)N[C@@H](CO)C(=O)N[C@H](C(=O)N[C@@H](CC(N)=O)C(=O)N[C@H](C(=O)NCC(=O)N1CCC[C@H]1C(=O)N[C@@H](CC(N)=O)C(=O)N[C@H](C(=O)N[C@@H](Cc1ccc(O)cc1)C(N)=O)[C@@H](C)O)C(C)C)[C@@H](C)O
notes: also called compound 98
B5: N^ε1-[2-[2-[2-[[(4S)-4-carboxy-4-(19-carboxynonadecanoylamino)butanoyl]amino]ethoxy]ethoxy]acetyl]-[His14,Arg17,Pro21,Pro27,His34]-h-amylin (peptide)
peptide: K([AEEA-γGlu-C20 diacid])CNTATCATQRLAHFLRHSSPNFGAIPSSTNVGHNTY-NH2
modifications: disulfide 2-7; N-terminus assumed
SMILES: CC[C@H](C)[C@H](NC(=O)[C@H](C)NC(=O)CNC(=O)[C@H](Cc1ccccc1)NC(=O)[C@H](CC(N)=O)NC(=O)[C@@H]1CCCN1C(=O)[C@H](CO)NC(=O)[C@H](CO)NC(=O)[C@H](Cc1c[nH]cn1)NC(=O)[C@H](CCCNC(=N)N)NC(=O)[C@H](CC(C)C)NC(=O)[C@H](Cc1ccccc1)NC(=O)[C@H](Cc1c[nH]cn1)NC(=O)[C@H](C)NC(=O)[C@H](CC(C)C)NC(=O)[C@H](CCCNC(=N)N)NC(=O)[C@H](CCC(N)=O)NC(=O)[C@@H](NC(=O)[C@H](C)NC(=O)[C@@H]1CSSC[C@H](NC(=O)[C@@H](N)CCCCNC(=O)COCCOCCNC(=O)CC[C@H](NC(=O)CCCCCCCCCCCCCCCCCCC(=O)O)C(=O)O)C(=O)N[C@@H](CC(N)=O)C(=O)N[C@@H]([C@@H](C)O)C(=O)N[C@@H](C)C(=O)N[C@@H]([C@@H](C)O)C(=O)N1)[C@@H](C)O)C(=O)N1CCC[C@H]1C(=O)N[C@@H](CO)C(=O)N[C@@H](CO)C(=O)N[C@H](C(=O)N[C@@H](CC(N)=O)C(=O)N[C@H](C(=O)NCC(=O)N[C@@H](Cc1c[nH]cn1)C(=O)N[C@@H](CC(N)=O)C(=O)N[C@H](C(=O)N[C@@H](Cc1ccc(O)cc1)C(N)=O)[C@@H](C)O)C(C)C)[C@@H](C)O
notes: also called compound 80
B6: N^ε1-[2-[2-[2-[[(4S)-4-carboxy-4-(19-carboxynonadecanoylamino)butanoyl]amino]ethoxy]ethoxy]acetyl]-[His14,Arg17,Pro21,Pro27,Arg34]-h-amylin (peptide)
peptide: K([AEEA-γGlu-C20 diacid])CNTATCATQRLAHFLRHSSPNFGAIPSSTNVGRNTY-NH2
modifications: disulfide 2-7; N-terminus assumed
SMILES: CC[C@H](C)[C@H](NC(=O)[C@H](C)NC(=O)CNC(=O)[C@H](Cc1ccccc1)NC(=O)[C@H](CC(N)=O)NC(=O)[C@@H]1CCCN1C(=O)[C@H](CO)NC(=O)[C@H](CO)NC(=O)[C@H](Cc1c[nH]cn1)NC(=O)[C@H](CCCNC(=N)N)NC(=O)[C@H](CC(C)C)NC(=O)[C@H](Cc1ccccc1)NC(=O)[C@H](Cc1c[nH]cn1)NC(=O)[C@H](C)NC(=O)[C@H](CC(C)C)NC(=O)[C@H](CCCNC(=N)N)NC(=O)[C@H](CCC(N)=O)NC(=O)[C@@H](NC(=O)[C@H](C)NC(=O)[C@@H]1CSSC[C@H](NC(=O)[C@@H](N)CCCCNC(=O)COCCOCCNC(=O)CC[C@H](NC(=O)CCCCCCCCCCCCCCCCCCC(=O)O)C(=O)O)C(=O)N[C@@H](CC(N)=O)C(=O)N[C@@H]([C@@H](C)O)C(=O)N[C@@H](C)C(=O)N[C@@H]([C@@H](C)O)C(=O)N1)[C@@H](C)O)C(=O)N1CCC[C@H]1C(=O)N[C@@H](CO)C(=O)N[C@@H](CO)C(=O)N[C@H](C(=O)N[C@@H](CC(N)=O)C(=O)N[C@H](C(=O)NCC(=O)N[C@@H](CCCNC(=N)N)C(=O)N[C@@H](CC(N)=O)C(=O)N[C@H](C(=O)N[C@@H](Cc1ccc(O)cc1)C(N)=O)[C@@H](C)O)C(C)C)[C@@H](C)O
notes: also called compound 84

biological target: T1, human amylin receptor (amylin 3(a) …); assay: cell-based or functional assay

| Binder | hAmylin-R funct. EC50 (pM) |
| --- | --- |
| B1 | 181 pM |
| B2 | 316 pM |
| B3 | 215 pM |
| B4 | 84 pM |
| B5 | 139 pM |
| B6 | 169 pM |

biological target: T2, human calcitonin receptor; assay: cell-based or functional assay

| Binder | Ratio hCT/hAmylin funct. | hCTR funct. EC50 (pM) |
| --- | --- | --- |
| B1 | 21 | 3800 pM |
| B2 |  | 8160 pM |
| B3 |  | 12700 pM |
| B4 | 19.5 | 1630 pM |
| B5 | 15.4 | 2140 pM |
| B6 |  | 5490 pM |
